A protein production outcome set (Wang et al. 2014)

Test: label from the status in PepcDB records

Sequence | protein production
MADRLIVRGAREHNLKNVSLDLPRDSLIVFTGLSGSGKSSLAFDTIFAEGQRRYVESLSSYARQFLGQMDKPDVDFIEGLSPAVSIDQKSTSRNPRSTVGTITEVYDYLRLLFARIGKPHCPECGRPISRQSPQAIVDKVLELPEGSRFQVLSPLVRERKGEFVDLFADLQTKGYSRARVDGETVQLSNPPTLKKQEKHTIEVVVDRLTVKDSAKRRLTDSVETALGLSGGMVVLDFVDLPEDDPERERMYSEHLYCPYDDLSFEELEPRSFSFNSPFGACPDCSGIGTRMEVDAELIVPDEDKSLDEGAIHPWSHGHTKDYFGRLIGALADALGFRTDIPFAGLPLRARKALLYGHKTQVEVRYRNRYGRERRYTTAFEGAIPFVKRRHSEAESDASRERFEGYMREVPCPTCQGTRLKPLVLAVTVMGKSIAEVSAMSISDCADFLGELTLNARDKKIAERVLKEVNERLRFLVDVGLDYLSLNRAAGTLSGGEAQRIRLATQIGSGLVGVLYVLDEPSIGLHQRDNHRLIETLVRLRDMGNTLIVVEHDEDTIKVADWIVDIGPGAGEHGGKVVHSGSVKELLDNAESQTGLYLSGRKAIPLPDIRRPQDPSRRLTVHGARENNLQDIDVSFPLGVFTAVTGVSGSGKSTLVNDILYTHLARELNGARNVPGRHTRVDGDDLVDKVVHVDQSPIGRTPRSNPATYTGVFDHIRKLFAETTEAKVRGYLPGRFSFNVKGGRCENCAGDGTIKIEMNFLPDVYVPCEVCHGARYNRETLEVHYKGKSIADVLNMPIEEATDFFEAVPAISRHMKTLKDVGLGYVRLGQSATTLSGGEAQRVKLASELQRRSTGRTVYVLDEPTTGLHFEDISKLLTVLGGLVDKGNTVIVIEHNLDVIKTADWVVDMGPEGGAGGGLVVAEGTPEQVAGVPASHTGKFLRDVLGADRVSDAAPVTRPRKAAKTVAAKAAAKKTATKTVTGTAAKKATATRTAKTAVKKAAKPAAKKTTRTSKA | failed
EQMTRDEIEYMLSKSEATLDAEEIEMLQGVFSLDEMMAREVMVPRTDAFMIDINDDPLENIQEILKQSFSRIPVYDVDKDKIIGLIHTKRLLESGFRQGFDQINMRKMLQEPLFVPETIFVDDLLRQLRNTQNQMAILLDEYGGVAGLVTLEDLLEEIVGEID | failed
MSLRPQTSFIFDLDGTLTDSVYQNVAAWKEALDAENIPLAMWRIHRKIGMSGGLMLKSLSRETGMSITDEQAERLSEKHAQAYERLQHQIIALPGAVELLETLDKENLKWCIATSGGIDTATINLKALKLDINKINIVTRDDVSYGKPDPDLFLAAAKKIGAPIDECLVIGDAIWDMLAARRCKATGVGLLSGGYDIGELERAGALRVYEDPLDLLNHLDEIASREGHHHHHH | not failed
MPEILINYKTNREDYKRQSKYCNICMRRYKSVKKNVIILALMIVFVFVFGTVAFHLIEGWNLFDSFFFTLITVSTVGYSIPENLSQAGKVIASILISAGVTIVLYGFTSVTSMIVEGHIGEYFKSRRMRKMIDRLKDHFIVVGAGRTGRHTTLEIMKAKKPFVVIDQSEEAIARLKDFLGEEFPYVVGDATEEEILMKAGVERARSLVVTLPDDAKSTFVVLTAKSLNPNLEIVSRVSDMKALSKLVYAGADKVIATSELAGVRLAQMALNPTTISFLDILSFGEESFRIEEVVIPPESPVANKTLGEINLAKRAGTIVIAIRRGGEVIFNPTGDTKILPEDRLMVVGKSDHFEKLHRLIEEG | failed
MSILVIGANGGVGSKLVSQLNEEHVDFTAGVRKEDQVKELENKGIKATLIDVEKNSINDLKNIFTDYDKVIFSVGSGGSTGADKTIIVDLDGAVKTIKASKEAGIKHYVMVSTYDSRREAFDASGDLKPYTIAKHYADDYLRTSDLNYTIVHPGSLTDDAGTGKIEADLYFDKAGSIPREDVATVLKEVVTSDGFNNQEFQILSGNHGVKDALKNYESLEHHHHHH | not failed
AIEVEKNNKGINLSFDIEFYPNSFQILQKEYKKIDLIAKLLEKFKKNNILIEGHTEQFGLEEEMHELSEKRARAIGNYLIKMKVKDKDQILFKGWGSQKPKYPKSSPLKAKNRRVEITILN | not failed
MSTPDATSPGSQQQDVFDFLGRGAGDAPVVRIDTHGAAVFLEGNRAMKIKRAVKFPFLDYSTLAKRKIACEQELEVGHRFAPTIYRRVVPITRTDKGALQIGGEGPAVEWAVEMMRFDDSATLDHLARAGSLGPGLIDAVADAIAASHQAAPLAATAPWGASIEPILADDTNELAAGGFAAADVAALDNGSRNALGRLRPLLEQRGVAGFVRWCHGDLHLANIVVIDGKPTLFDAIEFDPALASVDVLYDLAFPLMDLLHYGRGSDSAQLLNRYLAVTNADNLDALSALPLLLSMRAAIRAKVMLARPAADETIRRANRAIAESYFELALRLIAPPPPRLIAVGGLSGTGKSVLARALSGNVPPLPGAVVLRSDVARKRLHGVADTERLPATAYTTEVTEAVYRGLVERAAHILKQGHSVIVDAVFSKPEERDAIESVAAGLGISFHGLFLTADLATRVARVAGRTADASDATPEIVRQQQSYAQGVIGWTSIDAGGTPAETLSRAVAALPQTAQVCSTLEHHHHHH | not failed
MAAHLEEQQELDNFKYFWKTTGKWLFALLILAALGYLGYTVYQNRKVSQNQEAAAVLANIVEKAQSKAPQSEINAELTKLQQSYPHSISAAQATLMAAATEFDAQRYDVAEGHLKWVLSNQKDSLIQALAAQRLGVVLLQQKKYDAALAALDTPVEADFAPLLMETKGDVYAAQGKSQEALKNYGQALEKMPQDSVGRELVQMKLDSLK | failed
MVTSVSALAVAVVHSVAFAIGRRIGRYNVVDVVWGLGFVAVAVAAATLGHGDPVRRWLLLALVSTWGLRLSWHMYRKTAGQGEDPRYADLLRGATPVQALRKVFGLQGLLTLFVSFPLQLSAVTGPTPKPLLAVGGVGLAVWLVGITFEAVGDWQLWVFKSDPANRGVIMDRGLWAWTRHPNYFGDACVWWGLWLITINDWAPLATVGSPLLMTYLLVDVSGARLTERYLKGRPGFAEYQRRTAYFVPRPPRSARR | failed
MRILLVLAHPLEDSFAAAVARTAREALEASGHVVDLFDLYAENFDPRLSKAERGGYFDQPYDTSAVADIVARLKAADGLILVFPQWWFNFPAILKGFFDRVFAPGVAFSHDAAGGRIVPQLTHIRLLYALTTTGSPWWLVRLYMGDPVRRLLKRGIAAFCSKGLNFRMLSLHDMDRASDVKRRAHLDRVRKLLSAIR | failed
DIMGFVFNTRRTLFKDKRVRQALSILFDFEWVNHHLFNNIYTRTEGYWDGSILSSIGKPASEEEKALLAPYPDAVLPEVMDGSWRISKTDGSGMDRLNAQKAWKLLQEAGFTKKNNRLIAPNGLPFQFEIMTQSLEEEKVALAFQSNLSRLGIHAEIRTVDDSQYQNRLGMFNYDMIIGKLKNSLSPGNEQINRWSSASRNLKGSFNFSGASDPAIDAMITAILDAHSQVDFIAAVRALDRILISGSYYIPLYHLS | not failed
MSLPGLSAAADQTIKIGAQSMSESEIIASMLGQLIEHHTDLKTTTIKNLGSNAVQQQALMNGEIDIAATRYTGDALTGTLRMEPEKDPDKALALTQREFKKRYDLKWYDSYGFDNTYAFTVSKELADQYHLETVSDVKKWAPQLKLGVDNYWMKLKGNGYQDFTKTYGMTFGGTYPMQIGLVYDAVKSGKMDIVLAYSTDGRIKSYGLKMLKDDKQFFPPYDCSPVVPEKVLKEHPELEGIIKKMLGKIDTATMQELNYEVDGNLKEPSVVAKEYLEKHRYFESLEHHHHHH | not failed
MIRIDSVTKRYPDGTVAVDRLSLEIPDRSITVLVGPSGCGKTTTLRMINRMVEPSEGTILLDGADITKQPVNTLRRSMGYVIQNAGLFQHRTIVDNIATVPRMLGWGKERARSRARELMERVGLDASLARRYPYQLSGGQQQRVGVARALASDPPVLLMDEPFSAVDPVVRKGLQEELLRIQDELGKTIVFVTHDIDEAIRLGTMVAVMRTGGHLAQFAPPAELLSAPADAFVEDFLGTDRGIRRLSFFPSAGLELLTTPVVAIDSTAEQIAARGTPDVPYLLVTDVDGKALGWSEPKDLTAGKVVPERLLPYGRPFESGKDSLRAALDCAVLSPTGWAVAVDGTGRVVGVVSQETIGEAIRGAHAERRKADLAGLEHHHHHH | not failed
